Source: paper PMC2132842 (The Journal of Cell Biology, 1998)

T1: GAL4/CAS (human, UniProt P55060 1-971)
T1 sequence (looked up): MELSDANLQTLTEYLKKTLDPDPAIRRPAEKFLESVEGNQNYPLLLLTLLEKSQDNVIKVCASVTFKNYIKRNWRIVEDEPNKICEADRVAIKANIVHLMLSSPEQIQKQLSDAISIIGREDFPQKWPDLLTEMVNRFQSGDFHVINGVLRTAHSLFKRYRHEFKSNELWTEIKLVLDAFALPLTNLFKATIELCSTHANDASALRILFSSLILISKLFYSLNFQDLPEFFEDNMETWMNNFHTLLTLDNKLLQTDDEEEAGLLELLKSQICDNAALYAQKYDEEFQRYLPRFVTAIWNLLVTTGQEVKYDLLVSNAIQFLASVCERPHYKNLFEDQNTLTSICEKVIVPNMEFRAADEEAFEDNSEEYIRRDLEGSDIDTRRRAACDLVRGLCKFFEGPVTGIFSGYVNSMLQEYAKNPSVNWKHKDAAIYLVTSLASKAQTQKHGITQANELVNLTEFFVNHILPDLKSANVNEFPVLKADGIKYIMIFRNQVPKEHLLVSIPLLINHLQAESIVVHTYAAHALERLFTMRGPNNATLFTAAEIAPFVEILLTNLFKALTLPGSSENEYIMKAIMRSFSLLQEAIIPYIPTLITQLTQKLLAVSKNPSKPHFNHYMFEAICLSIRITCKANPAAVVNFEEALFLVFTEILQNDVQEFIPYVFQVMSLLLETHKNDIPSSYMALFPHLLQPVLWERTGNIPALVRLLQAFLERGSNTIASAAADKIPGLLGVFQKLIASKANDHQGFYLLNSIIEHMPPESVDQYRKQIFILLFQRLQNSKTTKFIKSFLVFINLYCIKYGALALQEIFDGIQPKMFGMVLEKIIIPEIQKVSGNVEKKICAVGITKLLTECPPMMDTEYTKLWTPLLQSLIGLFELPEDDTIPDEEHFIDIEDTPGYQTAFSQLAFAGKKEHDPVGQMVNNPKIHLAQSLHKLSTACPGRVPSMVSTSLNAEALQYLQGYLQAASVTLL


Legend:
[1] = biological target: T1, GAL4/CAS; test: two-hybrid
[2] = biological target: GAL4/Imp βΔ1/261 (human, UniProt Q14974 262-876); test: two-hybrid
GAL4/Imp βΔ1/261, sequence (Q14974 262-876, stated change not applied): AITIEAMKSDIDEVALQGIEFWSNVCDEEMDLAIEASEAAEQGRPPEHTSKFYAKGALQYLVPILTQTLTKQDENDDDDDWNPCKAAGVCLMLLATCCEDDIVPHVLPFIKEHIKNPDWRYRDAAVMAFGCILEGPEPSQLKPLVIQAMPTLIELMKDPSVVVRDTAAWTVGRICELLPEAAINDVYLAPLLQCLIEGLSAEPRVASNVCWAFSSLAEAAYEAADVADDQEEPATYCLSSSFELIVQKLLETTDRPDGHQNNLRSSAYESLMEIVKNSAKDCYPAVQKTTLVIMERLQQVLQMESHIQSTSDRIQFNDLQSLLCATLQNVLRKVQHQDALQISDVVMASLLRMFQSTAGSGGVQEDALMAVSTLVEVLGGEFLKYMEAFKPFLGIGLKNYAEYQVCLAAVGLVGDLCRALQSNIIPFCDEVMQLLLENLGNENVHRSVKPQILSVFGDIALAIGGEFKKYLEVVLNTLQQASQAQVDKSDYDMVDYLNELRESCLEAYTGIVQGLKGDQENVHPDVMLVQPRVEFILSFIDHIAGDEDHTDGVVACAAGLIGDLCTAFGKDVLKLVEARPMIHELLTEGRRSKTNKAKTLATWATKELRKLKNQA

Row | β-gal activity [1] | β-gal activity [2] | Binder
1 | 101 mOD/ml | 2350 mOD/ml | VP16/Imp α1 (natural protein) not shown
2 | 174 mOD/ml | 1850 mOD/ml | VP16/Imp α4 (natural protein, human, UniProt O00505 1-521, looked up) MAENPSLENHRIKSFKNKGRDVETMRRHRNEVTVELRKNKRDEHLLKKRNVPQEESLEDSDVDADFKAQNVTLEAILQNATSDNPVVQLSAVQAARKLLSSDRNPPIDDLIKSGILPILVKCLERDDNPSLQFEAAWALTNIASGTSAQTQAVVQSNAVPLFLRLLRSPHQNVCEQAVWALGNIIGDGPQCRDYVISLGVVKPLLSFISPSIPITFLRNVTWVIVNLCRNKDPPPPMETVQEILPALCVLIYHTDINILVDTVWALSYLTDGGNEQIQMVIDSGVVPFLVPLLSHQEVKVQTAALRAVGNIVTGTDEQTQVVLNCDVLSHFPNLLSHPKEKINKEAVWFLSNITAGNQQQVQAVIDAGLIPMIIHQLAKGDFGTQKEAAWAISNLTISGRKDQVEYLVQQNVIPPFCNLLSVKDSQVVQVVLDGLKNILIMAGDEASTIAEIIEECGGLEKIEVLQQHENEDIYKLAFEIIDQYFSGDDIDEDPCLIPEATQGGTYNFDPTANLQTKEFNF
